Test system: Bacillus subtilis
Test: cleaved RNA product abundance (RNA/gDNA barcode ratio) relative to median wild-type variant (ratio to wild type); higher = more accumulation of the downstream cleavage product
Conditions: cleavage site: cggR-gapA (positions -7 to +36 mutated)
Procedure, shortened: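 Sequencing of barcodes from gel-selected, reverse-transcribed cleaved RNA and from genomic DNA, with UMI collapsing, yielded a per-construct RNA:gDNA ratio. Scaled to the median construct with the unmutated site, this ratio is the cleaved product abundance. The barcoded reporters (truncated aprE or tetM mRNAs with mutagenized RNase Y cleavage-site windows) were integrated into the B. subtilis chromosome, and cultures grew in LB at 37°C from OD600 0.0003 to 0.3.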

[1] = experiment (reporter, strain, medium): exp 4a: truncated aprE reporter, strain BJT201 with 2% xylose (RNase J1 expressed)
[2] = experiment (reporter, strain, medium): exp 2b: truncated aprE reporter, strain BJT200
[3] = experiment (reporter, strain, medium): exp 6: tetM reporter, strain 168

ACAGACGAAGGAGCCGCAAAGAAGTTATTTAGGGATGAATAATCCCTCAATATAAAAATCTCTCACTTATTTAAA
cleaved RNA product abundance [1]: 0.601

ACAGACGAAGGAGCCGCAAAGAAGTTATTTAGGGATGAATAATCCCTCAATATAAACATCTCTCACTTATTTAAA
cleaved RNA product abundance [1]: 0.701

ACAGACGAAGGAGCCGCAAAGAAGTTATTTAGGGATGAATAATCCCTCAATATAAATATCTCTCACTTATTTAAA
cleaved RNA product abundance [2]: 0.704 | cleaved RNA product abundance [1]: 0.799 | cleaved RNA product abundance [3]: 0.636

ACAGACGAAGGAGCCGCAAAGAAGTTATTTAGGGATGAATAATCCCTCAATATAATTATCTCTCACTTATTTAAA
cleaved RNA product abundance [1]: 0.52

ACAGACGAAGGAGCCGCAAAGAAGTTATTTAGGGATGAATAATCCCTCAATATACATATCTCTCACTTATTTAAA
cleaved RNA product abundance [1]: 0.312

ACAGACGAAGGAGCCGCAAAGAAGTTATTTAGGGATGAATAATCCCTCAATTTAAATATCTCTCACTTATTTAAA
cleaved RNA product abundance [1]: 0.119

ACAGACGAAGGAGCCGCAAAGAAGTTATTTAGGGATGAATAATCCCTGAATATAAATATCTCTCACTTATTTAAA
cleaved RNA product abundance [1]: 0.559

ACAGACGAAGGAGCCGCAAAGAAGTTATTTAGGGATGAATAATCCCTTAATATAAATATCTCTCACTTATTTAAA
cleaved RNA product abundance [1]: 1.39

ACAGACGAAGGAGCCGCAAAGAAGTTATTTAGGGATGAATAATCCGTCAATATAAATATCTCTCACTTATTTAAA
cleaved RNA product abundance [2]: 0.169 | cleaved RNA product abundance [1]: 0.247

ACAGACGAAGGAGCCGCAAAGAAGTTATTTAGGGATGAATAATCCTTCAATATAAATATCTCTCACTTATTTAAA
cleaved RNA product abundance [1]: 0.531

ACAGACGAAGGAGCCGCAAAGAAGTTATTTAGGGATGAATAATCGCTCAATATAAATATCTCTCACTTATTTAAA
cleaved RNA product abundance [1]: 0.0995

ACAGACGAAGGAGCCGCAAAGAAGTTATTTAGGGATGAATAATCTCTCAATATAAATATCTCTCACTTATTTAAA
cleaved RNA product abundance [1]: 0.646

ACAGACGAAGGAGCCGCAAAGAAGTTATTTAGGGATGAATAATTCCTCAATATAAATATCTCTCACTTATTTAAA
cleaved RNA product abundance [1]: 0.405

ACAGACGAAGGAGCCGCAAAGAAGTTATTTAGGGATGAATCATCCCTCAATATAAATATCTCTCACTTATTTAAA
cleaved RNA product abundance [1]: 0.542

ACAGACGAAGGAGCCGCAAAGAAGTTATTTAGGGATGACTAATCCCTCAATATAAATATCTCTCACTTATTTAAA
cleaved RNA product abundance [1]: 0.541

ACAGACGAAGGAGCCGCAAAGAAGTTATTTAGGGATGATTAATCCCTCAATATAAATATCTCTCACTTATTTAAA
cleaved RNA product abundance [1]: 0.659

ACAGACGAAGGAGCCGCAAAGAAGTTATTTAGGGATTAATAATCCCTCAATATAAATATCTCTCACTTATTTAAA
cleaved RNA product abundance [2]: 0.951 | cleaved RNA product abundance [1]: 1.08

ACAGACGAAGGAGCCGCAAAGAAGTTATTTAGGGTTGAATAATCCCTCAATATAAATATCTCTCACTTATTTAAA
cleaved RNA product abundance [2]: 0.225 | cleaved RNA product abundance [1]: 0.344

ACAGACGAAGGAGCCGCAAAGAAGTTATTTAGGTATGAATAATCCCTCAATATAAATATCTCTCACTTATTTAAA
cleaved RNA product abundance [2]: 0.121 | cleaved RNA product abundance [1]: 0.165

ACAGACGAAGGAGCCGCAAAGAAGTTATTTAGTGATGAATAATCCCTCAATATAAATATCTCTCACTTATTTAAA
cleaved RNA product abundance [2]: 0.0988 | cleaved RNA product abundance [1]: 0.111

ACAGACGAAGGAGCCGCAAAGAAGTTATTTATGGATGAATAATCACTCAATATAAATATCTCTCACTTATTTAAA
cleaved RNA product abundance [1]: 0.124

ACAGACGAAGGAGCCGCAAAGAAGTTATTTATGGATGAATAATCCCTCAATATAAATATCTCTCACTTATTTAAA
cleaved RNA product abundance [1]: 0.165

ACAGACGAAGGAGCCGCAAAGAAGTTCATAAGGGATGAATAATCCCTCAATATAAATATCTCTCACTTATTTAAA
cleaved RNA product abundance [2]: 0.162

ACAGACGAAGGAGCCGCAAAGAAGTTCTGAAGGGATGAATAATCCCTCAATATAAATATCTCTCACTTATTTAAA
cleaved RNA product abundance [2]: 0.193

ACAGACGAAGGAGCCGCAAAGAAGTTCTTAAAGGATGAATAATCCCTCAATATAAATATCTCTCACTTATTTAAA
cleaved RNA product abundance [1]: 0.112

ACAGACGAAGGAGCCGCAAAGAAGTTCTTAAGAGATGAATAATCCCTCAATATAAATATCTCTCACTTATTTAAA
cleaved RNA product abundance [1]: 0.117

ACAGACGAAGGAGCCGCAAAGAAGTTCTTAAGGAATGAATAATCCCTCAATATAAATATCTCTCACTTATTTAAA
cleaved RNA product abundance [1]: 0.133

ACAGACGAAGGAGCCGCAAAGAAGTTCTTAAGGCATGAATAATCCCTCAATATAAATATCTCTCACTTATTTAAA
cleaved RNA product abundance [2]: 0.092 | cleaved RNA product abundance [1]: 0.122

ACAGACGAAGGAGCCGCAAAGAAGTTCTTAAGGGAAGAATAATCCCTCAATATAAATATCTCTCACTTATTTAAA
cleaved RNA product abundance [1]: 0.113

ACAGACGAAGGAGCCGCAAAGAAGTTCTTAAGGGATAAATAATCCCTCAATATAAATATCTCTCACTTATTTAAA
cleaved RNA product abundance [2]: 0.104 | cleaved RNA product abundance [1]: 0.212

ACAGACGAAGGAGCCGCAAAGAAGTTCTTAAGGGATCAATAATCCCTCAATATAAATATCTCTCACTTATTTAAA
cleaved RNA product abundance [1]: 0.205

ACAGACGAAGGAGCCGCAAAGAAGTTCTTAAGGGATGAAGAATCCCTCAATATAAATATCTCTCACTTATTTAAA
cleaved RNA product abundance [2]: 0.14

ACAGACGAAGGAGCCGCAAAGAAGTTCTTAAGGGATGAATAATACCTCAATATAAATATCTCTCACTTATTTAAA
cleaved RNA product abundance [1]: 0.14

ACAGACGAAGGAGCCGCAAAGAAGTTCTTAAGGGATGAATAATCCATCAATATAAATATCTCTCACTTATTTAAA
cleaved RNA product abundance [1]: 0.199

ACAGACGAAGGAGCCGCAAAGAAGTTCTTAAGGGATGAATAATCCCACAATATAAATATCTCTCACTTATTTAAA
cleaved RNA product abundance [2]: 0.119

ACAGACGAAGGAGCCGCAAAGAAGTTCTTAAGGGATGAATAATCCCTAAATATAAATATCTCTCACTTATTTAAA
cleaved RNA product abundance [2]: 0.236 | cleaved RNA product abundance [1]: 0.193

ACAGACGAAGGAGCCGCAAAGAAGTTCTTAAGGGATGAATAATCCCTCAAAATAAATATCTCTCACTTATTTAAA
cleaved RNA product abundance [1]: 0.182

ACAGACGAAGGAGCCGCAAAGAAGTTCTTAAGGGATGAATAATCCCTCAATATAAAAATCTCTCACTTATTTAAA
cleaved RNA product abundance [2]: 0.181

ACAGACGAAGGAGCCGCAAAGAAGTTCTTAAGGGATGAATAATCCCTCAATATAAATAACTCTCACTTATTTAAA
cleaved RNA product abundance [1]: 0.162

ACAGACGAAGGAGCCGCAAAGAAGTTCTTAAGGGATGAATAATCCCTCAATATAAATATCTCTCACTTATTTAAA
cleaved RNA product abundance [2]: 0.168 | cleaved RNA product abundance [1]: 0.254 | cleaved RNA product abundance [3]: 0.299

ACAGACGAAGGAGCCGCAAAGAAGTTCTTAAGGGATGAATAATCCCTCAATTTAAATATCTCTCACTTATTTAAA
cleaved RNA product abundance [1]: 0.0838

ACAGACGAAGGAGCCGCAAAGAAGTTCTTAAGGGATGAATAATCCTTCAATATAAATATCTCTCACTTATTTAAA
cleaved RNA product abundance [2]: 0.139

ACAGACGAAGGAGCCGCAAAGAAGTTCTTAAGGGATGAATAATCTCTCAATATAAATATCTCTCACTTATTTAAA
cleaved RNA product abundance [1]: 0.199

ACAGACGAAGGAGCCGCAAAGAAGTTCTTAAGGGATGAATAATGCCTCAATATAAATATCTCTCACTTATTTAAA
cleaved RNA product abundance [2]: 0.0955

ACAGACGAAGGAGCCGCAAAGAAGTTCTTAAGGGATGAATATTCCCTCAATATAAATATCTCTCACTTATTTAAA
cleaved RNA product abundance [1]: 0.245

ACAGACGAAGGAGCCGCAAAGAAGTTCTTAAGGGATGAATGATCCCTCAATATAAATATCTCTCACTTATTTAAA
cleaved RNA product abundance [2]: 0.107

ACAGACGAAGGAGCCGCAAAGAAGTTCTTAAGGGATGAATTATCCCTCAATATAAATATCTCTCACTTATTTAAA
cleaved RNA product abundance [1]: 0.126

— the supplement of paper PMC11780869
